Data taken from article PMC6275156.

Molecular target: BB2
Experiment: SEC-MALS

## BB2
  stoichiometry N: 4
